Measurements published in article PMC5571166, “Mapping the key residues of SufB and SufD essential for biosynthesis of iron-sulfur clusters” (Scientific Reports, 2017).

Assays:
Assay in all cases: SEC; SufBCD complexes co-expressed in E. coli and co-purified on Phenyl FF, Q XL and Sephacryl S-200; eluted from gel filtration at about 160 kDa; subunit composition checked by SDS-PAGE of the purified sample
Settings in all cases: both partners purified
SufB^K303A = biological target: T1, SufB^K303A (Escherichia coli, UniProt P77522 1-495, SufB^K303A)
T1 construct: SufB of the Escherichia coli sufABCDSE operon
T1 sequence: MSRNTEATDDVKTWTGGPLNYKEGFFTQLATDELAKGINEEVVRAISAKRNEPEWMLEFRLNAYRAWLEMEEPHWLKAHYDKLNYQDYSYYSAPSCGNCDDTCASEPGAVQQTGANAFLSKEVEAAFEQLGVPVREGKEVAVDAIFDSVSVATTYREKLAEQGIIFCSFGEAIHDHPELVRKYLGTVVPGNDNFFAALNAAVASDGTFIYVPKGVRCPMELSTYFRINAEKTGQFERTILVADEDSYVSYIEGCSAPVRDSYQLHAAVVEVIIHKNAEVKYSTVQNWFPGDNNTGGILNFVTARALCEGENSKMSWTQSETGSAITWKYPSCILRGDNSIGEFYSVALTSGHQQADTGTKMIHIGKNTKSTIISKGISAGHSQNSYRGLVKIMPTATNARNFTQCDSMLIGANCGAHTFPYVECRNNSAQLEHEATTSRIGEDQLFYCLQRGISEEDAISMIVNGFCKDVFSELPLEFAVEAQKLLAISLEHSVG

SufB^E434A = biological target: T2, SufB^E434A (Escherichia coli, UniProt P77522 1-495, SufB^E434A)
T2 construct: SufB of the Escherichia coli sufABCDSE operon
T2 sequence: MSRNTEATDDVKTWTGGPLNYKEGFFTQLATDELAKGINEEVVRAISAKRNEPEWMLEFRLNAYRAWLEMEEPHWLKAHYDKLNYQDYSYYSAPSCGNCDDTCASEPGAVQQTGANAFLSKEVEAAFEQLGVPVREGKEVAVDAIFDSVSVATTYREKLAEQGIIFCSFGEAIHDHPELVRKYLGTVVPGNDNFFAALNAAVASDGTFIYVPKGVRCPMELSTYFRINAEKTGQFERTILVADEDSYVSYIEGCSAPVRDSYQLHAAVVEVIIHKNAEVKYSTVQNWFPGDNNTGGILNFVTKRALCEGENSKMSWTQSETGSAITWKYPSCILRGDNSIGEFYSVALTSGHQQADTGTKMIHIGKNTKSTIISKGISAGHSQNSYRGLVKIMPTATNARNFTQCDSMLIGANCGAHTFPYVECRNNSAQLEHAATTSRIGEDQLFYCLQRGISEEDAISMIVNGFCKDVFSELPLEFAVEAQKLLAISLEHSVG

SufB (wild type) = biological target: T3, SufB (wild type) (Escherichia coli, UniProt P77522 1-495)
T3 construct: SufB of the Escherichia coli sufABCDSE operon; Expressed from the cloned suf genes with no tag mentioned; The host is stated only for the variant complexes (YT2512, pGSO164-derived plasmid); One SufB per SufBCD complex (SufB:SufC:SufD 1:2:1); also called SufB subunit of the wild-type SufBCD complex; source: purified as the wild-type SufBCD complex; E. coli YT2512 (ΔsufABCDSE) from pBBR-sufAB, in …
T3 sequence: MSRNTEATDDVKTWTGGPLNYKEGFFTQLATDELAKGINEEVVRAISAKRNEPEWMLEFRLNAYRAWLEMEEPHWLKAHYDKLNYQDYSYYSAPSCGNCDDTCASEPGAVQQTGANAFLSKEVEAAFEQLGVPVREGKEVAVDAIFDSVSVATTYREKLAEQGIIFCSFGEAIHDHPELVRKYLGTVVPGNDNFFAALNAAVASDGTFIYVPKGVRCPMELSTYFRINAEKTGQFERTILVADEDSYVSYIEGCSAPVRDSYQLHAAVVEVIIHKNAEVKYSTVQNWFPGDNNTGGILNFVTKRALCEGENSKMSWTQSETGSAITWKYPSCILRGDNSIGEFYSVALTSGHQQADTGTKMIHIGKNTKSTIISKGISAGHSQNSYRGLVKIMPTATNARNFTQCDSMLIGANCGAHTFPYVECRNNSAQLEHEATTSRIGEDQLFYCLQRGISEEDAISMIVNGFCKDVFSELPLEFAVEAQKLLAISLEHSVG

SufB^C254A = biological target: T4, SufB^C254A (Escherichia coli, UniProt P77522 1-495, SufB^C254A)
T4 construct: SufB of the Escherichia coli sufABCDSE operon; source: pBBR-sufAB carrying the mutation, in bacterial extract
T4 sequence: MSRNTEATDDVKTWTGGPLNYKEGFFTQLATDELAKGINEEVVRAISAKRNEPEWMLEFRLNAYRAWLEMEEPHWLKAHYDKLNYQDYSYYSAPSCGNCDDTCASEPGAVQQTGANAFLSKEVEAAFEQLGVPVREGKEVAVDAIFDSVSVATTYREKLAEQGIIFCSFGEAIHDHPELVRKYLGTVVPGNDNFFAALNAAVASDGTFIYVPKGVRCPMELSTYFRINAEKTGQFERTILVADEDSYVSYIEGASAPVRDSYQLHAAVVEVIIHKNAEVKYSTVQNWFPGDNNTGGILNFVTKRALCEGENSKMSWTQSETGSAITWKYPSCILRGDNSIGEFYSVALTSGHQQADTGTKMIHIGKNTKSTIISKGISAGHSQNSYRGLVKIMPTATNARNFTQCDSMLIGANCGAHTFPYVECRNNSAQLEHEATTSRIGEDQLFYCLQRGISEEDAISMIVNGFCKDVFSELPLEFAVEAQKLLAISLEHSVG

Measured: binding result

B1: SufC (natural protein, Escherichia coli)
chain: MLSIKDLHVSVEDKAILRGLSLDVHPGEVHAIMGPNGSGKSTLSATLAGREDYEVTGGTVEFKGKDLLALSPEDRAGEGIFMAFQYPVEIPGVSNQFFLQTALNAVRSYRGQETLDRFDFQDLMEEKIALLKMPEDLLTRSVNVGFSGGEKKRNDILQMAVLEPELCILDESDSGLDIDALKVVADGVNSLRDGKRSFIIVTHYQRILDYIKPDYVHVLYQGRIVKSGDFTLVKQLEEQGYGWLTEQQ
notes: SufC of the Escherichia coli sufABCDSE operon; also called SufC subunit of the SufBCD complex
binds: all assays above

B2: SufD (natural protein, Escherichia coli)
chain: MAGLPNSSNALQQWHHLFEAEGTKRSPQAQQHLQQLLRTGLPTRKHENWKYTPLEGLINSQFVSIAGEISPQQRDALALTLDSVRLVFVDGRYVPALSDATEGSGYEVSINDDRQGLPDAIQAEVFLHLTESLAQSVTHIAVKRGQRPAKPLLLMHITQGVAGEEVNTAHYRHHLDLAEGAEATVIEHFVSLNDARHFTGARFTINVAANAHLQHIKLAFENPLSHHFAHNDLLLAEDATAFSHSFLLGGAVLRHNTSTQLNGENSTLRINSLAMPVKNEVCDTRTWLEHNKGFCNSRQLHKTIVSDKGRAVFNGLINVAQHAIKTDGQMTNNNLLMGKLAEVDTKPQLEIYADDVKCSHGATVGRIDDEQIFYLRSRGINQQDAQQMIIYAFAAELTEALRDEGLKQQVLARIGQRLPGGAR
notes: SufD of the Escherichia coli sufABCDSE operon; One SufD per SufBCD complex (1:2:1); also called SufD subunit of the SufBCD complex
binds: all assays above
